In the experiment the target is T1, exosome core with Rrp42 N9A (state A mutant) (UniProt Q9UXC2 1-248; Q9UXC0 1-275, N9A).
T1 sequence 1: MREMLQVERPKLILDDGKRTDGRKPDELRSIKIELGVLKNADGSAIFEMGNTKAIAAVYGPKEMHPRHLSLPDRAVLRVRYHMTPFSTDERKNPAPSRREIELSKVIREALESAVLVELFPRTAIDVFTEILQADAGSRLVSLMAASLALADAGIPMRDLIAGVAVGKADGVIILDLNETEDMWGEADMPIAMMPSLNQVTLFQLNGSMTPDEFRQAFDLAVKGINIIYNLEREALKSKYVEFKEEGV
T1 sequence 2: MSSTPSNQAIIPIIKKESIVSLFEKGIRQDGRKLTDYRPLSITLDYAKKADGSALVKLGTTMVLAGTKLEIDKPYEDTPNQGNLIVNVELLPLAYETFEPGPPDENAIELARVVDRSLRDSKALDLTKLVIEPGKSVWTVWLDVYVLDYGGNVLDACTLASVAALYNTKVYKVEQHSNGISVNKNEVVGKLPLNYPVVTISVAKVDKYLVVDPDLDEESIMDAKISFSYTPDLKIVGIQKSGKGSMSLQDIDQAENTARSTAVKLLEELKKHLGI
Nature of the experiment: methyl TROSY NMR spectra of free and cap-bound exosome core.

B1: Rrp4 (exosome cap protein) (natural protein)
chain: MNMSQSQKIVLQPRSIVVPGELLAEGEFQIPWSPYILKINSKYYSTVVGLFDVKDTQFEVIPLEGSFYYPKINDIVIGLVEDVEIYGWVVDIKAPYKAYLPASNLLGRSINVGEDLRRYLDVGDYVIARIENFDRSIDPVLSVKGKDLGRVSNGIVIDIMPVKVPRVIGKNKSMYETLTSKSGCSIFVANNGRIWATCPSRFSEEILIEAIRKIENESHIKGLTDRIKQFIEEKLGERNASSGETKTNS
As to B1, the binding result is “binds”.

The values above are taken from article PMC3840697 (Angewandte Chemie (International Ed. in English), 2013).
